Experimental data: paper doi:10.1101/2025.10.16.682781

Columns and labels:
Assay in all cases: ITC
[1] = molecular target: FusB-CTD wild type (C-terminal domain of the TonB homologue FusB of Pectobacterium carotovorum LMG2410) (Pectobacterium carotovorum LMG2410)
[2] = molecular target: FusB-CTD D322N (Pectobacterium carotovorum LMG2410)
[3] = molecular target: FusB-CTD R241K (Pectobacterium carotovorum LMG2410)
[4] = molecular target: FusB-CTD R241A (Pectobacterium carotovorum LMG2410)

Substance | Kd [1] [mM] | Kd [2] [mM] | Kd [3] [mM] | Kd [4] [mM]
FusANTR-GFP D53A (domain or fragment) | 31.6 | 31.8 |  | 
FusANTR-GFP wild type (GFP fusion construct containing the N-terminal region, residues 21-66, of FusA) (domain or fragment) |  | 0.0094 | 25.3 | 38.8
SpFer E93A/E94A (from UniProt P00221 51-147) (natural protein) | 31.3 |  |  | 
SpFer F64Y (natural protein) | 30.7 |  |  | 
